This note sets out measurements from paper PMC6591006.

The target in the experiment is Monoclonal anti-HIV-1 Env SF12 (IgG). The experiment can be described thus: ELISA. The note with it: highest antibody concentration of the titration (last point of the curve, between 1 and 10 µg/ml); parent: est. 3.3; read off a plot.

For “YU2 gp140 foldon trimer (wild type) A281T; D368K”, the response was 2.7 OD.
